Measurements: US20230270877A1 (Seagen, published 2023)

Target: T1, human FcγRIIIa (human, UniProt P08637 17-254)
T1 construct: whole, on cells
Assay: flow cytometry on CHO cells transfected with human FcγRIIIa, PE anti-human IgG Fc secondary, GEO mean fluorescence

T1 sequence (P08637 17-254): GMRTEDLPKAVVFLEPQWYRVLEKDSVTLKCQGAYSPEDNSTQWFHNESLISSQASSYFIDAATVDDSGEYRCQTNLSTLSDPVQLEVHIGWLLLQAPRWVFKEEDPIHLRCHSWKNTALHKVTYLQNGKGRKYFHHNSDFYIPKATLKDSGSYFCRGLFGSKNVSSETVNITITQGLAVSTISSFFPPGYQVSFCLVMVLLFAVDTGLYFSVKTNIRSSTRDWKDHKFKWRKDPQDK

B1: SEA-CD40 (nonfucosylated hS2C6) (antibody, human IgG1, kappa)
heavy: not shown
light: DIQMTQSPSSLSASVGDRVTITCRSSQSLVHSNGNTFLHWYQQKPGKAPKLLIYTVSNRFSGVPSRFSGSGSGTDFTLTISSLQPEDFATYFCSQTTHVPWTFGQGTKVEIKRTVAAPSVFIFPPSDEQLKSGTASVVCLLNNFYPREAKVQWKVDNALQSGNSQESVTEQDSKDSTYSLSSTLTLSKADYEKHKVYACEVTHQGLSSPVTKSFNRGEC
notes: also called nonfucosylated humanized S2C6
EC50 (read off the curve): ~1 µg/mL
